Assay results reported in paper PMC9015690.

Target: CXCL12 locked dimer (CXCL12-LD) (UniProt P48061)
Assay: ITC

CXCL12 locked dimer (CXCL12-LD), sequence (P48061 22-89 L57C/A86C): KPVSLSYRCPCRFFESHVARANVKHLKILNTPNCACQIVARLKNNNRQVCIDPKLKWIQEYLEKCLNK

- KD of the first transition (sequential binding model): 6 nM
- stoichiometry N: 1
B1: ACKR1^N-term, sixty-amino acid peptide corresponding to the extracellular N-terminus of ACKR1 (domain or fragment)
chain: MGNALHRAELSPSTENSSQLDFEDVWNSSYGVNDSFPDGDYGANLEAAAPAHSANLLDDS
